{"source": "paper PMC3285272", "target": "S. cerevisiae Arf1 (residues 18–181) with a C-terminal GST tag (S. cerevisiae) (UniProt P11076)", "sequence (P11076 18-181)": "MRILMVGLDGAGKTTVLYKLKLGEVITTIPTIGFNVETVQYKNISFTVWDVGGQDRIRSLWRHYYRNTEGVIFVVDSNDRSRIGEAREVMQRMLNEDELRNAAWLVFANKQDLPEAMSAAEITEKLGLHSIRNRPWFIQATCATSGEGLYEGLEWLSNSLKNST", "assay": "pull-down", "data": [{"substance": "γζ-COP dimer with full-length γ-COP L128E (from UniProt P53620 1-874; P35604 1-177) (complex)", "values": [{"measurement": "percent of the binding capacity of wild-type protein", "value": 90, "unit": "%"}]}]}
